Source: PMC9482650, “Quantitative fragmentomics allow affinity mapping of interactomes” (Nature Communications, 2022)

Columns and labels:
Assay in all cases: holdup assay
Parameters in all cases: key: below the threshold = too weak to quantify, mostly under pKd 3.1 to 4
Conditions in all cases: plain residues with an end cap or a label only (N-terminal biotin on a linker: ado-ado)
[1] = biological target: DLG1_3, Q12959
[2] = biological target: T1, LNX2_3, Q8N448
T1 sequence (Q8N448 463-564, limits assumed, looked up): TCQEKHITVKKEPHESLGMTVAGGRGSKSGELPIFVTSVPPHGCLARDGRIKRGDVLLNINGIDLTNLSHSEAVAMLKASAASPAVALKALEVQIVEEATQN

[3] = biological target: SNX27, Q96L92
[4] = biological target: T2, SNTG2, Q9NY99
T2 sequence (Q9NY99 68-166, limits assumed, looked up): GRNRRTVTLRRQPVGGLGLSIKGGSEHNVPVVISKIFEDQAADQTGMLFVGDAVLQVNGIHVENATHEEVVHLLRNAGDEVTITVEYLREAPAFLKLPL

[5] = biological target: T3, LIN7C, Q9NUP9
T3 sequence (Q9NUP9 88-185, limits assumed, looked up): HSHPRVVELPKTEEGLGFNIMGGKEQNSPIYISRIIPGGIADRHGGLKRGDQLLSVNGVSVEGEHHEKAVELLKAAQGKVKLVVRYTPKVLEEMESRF

[6] = biological target: T4, TIAM2, Q8IVF5
T4 sequence (Q8IVF5 885-986, limits assumed, looked up): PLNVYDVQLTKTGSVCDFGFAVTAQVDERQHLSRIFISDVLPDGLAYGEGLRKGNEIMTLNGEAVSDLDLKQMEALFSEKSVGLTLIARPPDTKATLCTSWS

[7] = biological target: SCRIB_2, Q14160
SCRIB_2, Q14160, sequence (Q14160 857-960): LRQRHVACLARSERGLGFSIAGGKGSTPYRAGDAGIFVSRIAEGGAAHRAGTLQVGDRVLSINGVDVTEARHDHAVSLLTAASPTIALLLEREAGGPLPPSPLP

[8] = biological target: T5, ARHGEF11, O15085
T5 sequence (O15085 42-136, limits assumed, looked up): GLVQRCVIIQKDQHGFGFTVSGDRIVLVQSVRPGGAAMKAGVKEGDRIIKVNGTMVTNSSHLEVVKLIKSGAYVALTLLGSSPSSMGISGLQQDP

[9] = biological target: AHNAK1, Q09666
AHNAK1, Q09666, sequence (Q09666 4-100): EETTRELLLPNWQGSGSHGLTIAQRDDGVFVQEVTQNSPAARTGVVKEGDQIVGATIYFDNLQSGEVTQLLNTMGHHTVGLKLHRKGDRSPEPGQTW

[10] = biological target: Inadl_6, Q8NI35
Inadl_6, Q8NI35, sequence (Q8NI35 1058-1167): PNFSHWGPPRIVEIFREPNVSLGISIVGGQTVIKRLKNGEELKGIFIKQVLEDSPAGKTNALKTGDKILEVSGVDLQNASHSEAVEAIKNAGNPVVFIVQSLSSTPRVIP

[11] = biological target: IL16_4, Q14005
IL16_4, Q14005, sequence (Q14005 1229-1329): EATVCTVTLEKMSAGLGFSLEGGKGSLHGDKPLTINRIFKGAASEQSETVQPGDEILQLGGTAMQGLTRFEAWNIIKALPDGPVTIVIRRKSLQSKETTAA

[12] = biological target: FRMPD2_2, Q68DX3
FRMPD2_2, Q68DX3, sequence (Q68DX3 944-1038): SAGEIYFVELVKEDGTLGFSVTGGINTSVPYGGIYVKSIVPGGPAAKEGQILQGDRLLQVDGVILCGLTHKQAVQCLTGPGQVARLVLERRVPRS

[13] = biological target: T6, GRIP1_4, Q9Y3R0
T6 sequence (Q9Y3R0 467-571, limits assumed, looked up): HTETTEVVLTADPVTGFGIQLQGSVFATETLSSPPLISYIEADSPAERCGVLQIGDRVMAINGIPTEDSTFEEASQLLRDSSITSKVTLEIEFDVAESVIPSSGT

[14] = biological target: T7, NHERF3_4, Q5T2W1
T7 sequence (Q5T2W1 373-468, limits assumed, looked up): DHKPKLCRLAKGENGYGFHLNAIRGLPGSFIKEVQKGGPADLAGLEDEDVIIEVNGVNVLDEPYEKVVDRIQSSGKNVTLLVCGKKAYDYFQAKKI

[15] = biological target: T8, PDZD2_2, O15018
T8 sequence (O15018 329-429, limits assumed, looked up): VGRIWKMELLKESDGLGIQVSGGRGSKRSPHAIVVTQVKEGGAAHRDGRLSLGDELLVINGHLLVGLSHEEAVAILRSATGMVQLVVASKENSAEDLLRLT

[16] = biological target: LAP2, Q96RT1
LAP2, Q96RT1, sequence (Q96RT1 other isoform, or with tags, fused parts or gaps): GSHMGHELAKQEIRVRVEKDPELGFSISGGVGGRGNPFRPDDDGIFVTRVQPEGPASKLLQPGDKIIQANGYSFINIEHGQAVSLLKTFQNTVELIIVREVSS

[17] = biological target: Inadl_3, Q8NI35
Inadl_3, Q8NI35, sequence (Q8NI35 359-469): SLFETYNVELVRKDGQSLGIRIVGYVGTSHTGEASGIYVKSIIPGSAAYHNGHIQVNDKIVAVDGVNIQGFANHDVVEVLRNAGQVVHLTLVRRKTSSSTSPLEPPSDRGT

[18] = biological target: T9, APBA3_1, O96018
T9 sequence (O96018 389-490, limits assumed, looked up): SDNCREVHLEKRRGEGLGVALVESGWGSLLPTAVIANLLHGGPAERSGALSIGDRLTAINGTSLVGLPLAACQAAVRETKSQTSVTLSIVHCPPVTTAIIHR

[19] = biological target: DLG2_2, Q15700
DLG2_2, Q15700, sequence (Q15700 189-283): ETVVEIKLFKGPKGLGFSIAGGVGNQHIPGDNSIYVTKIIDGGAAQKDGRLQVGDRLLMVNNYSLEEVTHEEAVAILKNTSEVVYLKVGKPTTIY

[20] = biological target: T10, SNTB1, Q13884
T10 sequence (Q13884 107-205, limits assumed, looked up): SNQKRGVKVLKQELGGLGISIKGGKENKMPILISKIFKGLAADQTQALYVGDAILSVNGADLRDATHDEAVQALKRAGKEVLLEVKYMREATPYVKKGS

[21] = biological target: TJP1_3, Q07157
TJP1_3, Q07157, sequence (Q07157 416-512): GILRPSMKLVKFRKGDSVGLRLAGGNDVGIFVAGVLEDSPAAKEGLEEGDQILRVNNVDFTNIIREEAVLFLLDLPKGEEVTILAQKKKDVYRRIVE

[22] = biological target: MAGI2_4, Q86UL8
MAGI2_4, Q86UL8, sequence (Q86UL8 772-865): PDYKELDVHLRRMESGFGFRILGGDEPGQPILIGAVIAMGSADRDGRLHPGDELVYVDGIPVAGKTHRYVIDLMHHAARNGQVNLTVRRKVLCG

[23] = biological target: LNX1_2, Q8TBB1
LNX1_2, Q8TBB1, sequence (Q8TBB1 371-470): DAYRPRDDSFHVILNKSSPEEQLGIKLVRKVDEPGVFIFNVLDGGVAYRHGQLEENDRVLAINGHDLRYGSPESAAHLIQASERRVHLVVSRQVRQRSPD

[24] = biological target: T11, PDZRN3_1, Q9UPQ7
T11 sequence (Q9UPQ7 244-349, limits assumed, looked up): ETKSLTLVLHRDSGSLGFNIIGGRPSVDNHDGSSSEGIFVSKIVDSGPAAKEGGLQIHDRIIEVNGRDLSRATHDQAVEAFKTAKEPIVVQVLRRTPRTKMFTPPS

[25] = biological target: LNX1_3, Q8TBB1
LNX1_3, Q8TBB1, sequence (Q8TBB1 500-596): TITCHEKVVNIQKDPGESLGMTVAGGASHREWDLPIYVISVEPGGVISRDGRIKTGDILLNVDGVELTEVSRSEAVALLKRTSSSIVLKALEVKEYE

[26] = biological target: T12, HTRA4, P83105
T12 sequence (P83105 378-476, limits assumed, looked up): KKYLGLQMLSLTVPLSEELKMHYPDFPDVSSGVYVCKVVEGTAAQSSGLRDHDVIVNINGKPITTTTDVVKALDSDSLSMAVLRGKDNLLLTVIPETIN

DLG1_3, Q12959, sequence (Q12959 457-571): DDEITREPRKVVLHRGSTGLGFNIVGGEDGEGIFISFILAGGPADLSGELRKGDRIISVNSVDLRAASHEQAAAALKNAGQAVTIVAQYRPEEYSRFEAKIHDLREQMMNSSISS

For IQISELETNV [SLC1A7, O00341], the pKd [1] was 3.57, the pKd [2] was “below the threshold” and the pKd [3] was 5.65. For the same binder, the pKd [4] was 4.91, the pKd [5] was 3.97 and the pKd [6] was “below the threshold”. The pKd [7] was 4.16, the pKd [8] was 3.94 and the pKd [9] was “below the threshold”. For the same binder, the pKd [10] was 4.04, the pKd [11] was “below the threshold” and the pKd [12] was 5.03. The pKd [13] was “below the threshold”, the pKd [14] was “below the threshold” and the pKd [15] was 4.97. The pKd [16] was 4.5, the pKd [17] was 4 and the pKd [18] was “below the threshold”. For the same binder, the pKd [19] was 4.56, the pKd [20] was 5.37 and the pKd [21] was “below the threshold”. For the same binder, the pKd [22] was 3.56, the pKd [23] was “below the threshold” and the pKd [24] was 3.84. For the same binder, the pKd [25] was “below the threshold” and the pKd [26] was 3.9.

In the case of TFSRRPKTRV [CD226, Q15762], the pKd [1] is reported as “below the threshold”, the pKd [2] is reported as 3.61 and the pKd [3] is reported as 3.88. The pKd [4] was 3.55, the pKd [5] was “below the threshold” and the pKd [6] was “below the threshold”. The pKd [7] was 3.54, the pKd [8] was 4.06 and the pKd [9] was “below the threshold”. The pKd [10] was “below the threshold”, the pKd [11] was “below the threshold” and the pKd [12] was “below the threshold”. For the same binder, the pKd [13] was “below the threshold”, the pKd [14] was “below the threshold” and the pKd [15] was “below the threshold”. For the same binder, the pKd [16] was “below the threshold”, the pKd [17] was “below the threshold” and the pKd [18] was “below the threshold”. For the same binder, the pKd [19] was “below the threshold”, the pKd [20] was “below the threshold” and the pKd [21] was “below the threshold”. For the same binder, the pKd [22] was “below the threshold”, the pKd [23] was “below the threshold” and the pKd [24] was 3.48. It also gave a pKd [25] of 3.5 and a pKd [26] of 4.01.

With TNSKQGETTV [FZD1, Q9UP38] the pKd [1] was 4.13, the pKd [2] was “below the threshold” and the pKd [3] was 5.5. The pKd [4] was 4.16, the pKd [5] was 4.45 and the pKd [6] was “below the threshold”. The pKd [7] was 4.01, the pKd [8] was 4.25 and the pKd [9] was “below the threshold”. The pKd [10] was “below the threshold”, the pKd [11] was 3.68 and the pKd [12] was “below the threshold”. For the same binder, the pKd [13] was “below the threshold”, the pKd [14] was “below the threshold” and the pKd [15] was 3.93. For the same binder, the pKd [16] was 3.61, the pKd [17] was “below the threshold” and the pKd [18] was “below the threshold”. It also gave a pKd [19] of 4.82, a pKd [20] of 4.72 and a pKd [21] of 3.69. The pKd [22] was 4.13, the pKd [23] was 3.68 and the pKd [24] was 3.85. For the same binder, the pKd [25] was “below the threshold” and the pKd [26] was 3.79.

In the case of KSRPENGTVC [TMEM178B, H3BS89], the pKd [1] is reported as “below the threshold”, the pKd [2] is reported as “below the threshold” and the pKd [3] is reported as 3.58. The pKd [4] was “below the threshold”, the pKd [5] was “below the threshold” and the pKd [6] was “below the threshold”. The pKd [7] was “below the threshold”, the pKd [8] was 3.89 and the pKd [9] was “below the threshold”. For the same binder, the pKd [10] was “below the threshold”, the pKd [11] was “below the threshold” and the pKd [12] was “below the threshold”. The pKd [13] was “below the threshold”, the pKd [14] was “below the threshold” and the pKd [15] was 3.59. The pKd [16] was “below the threshold”, the pKd [17] was “below the threshold” and the pKd [18] was “below the threshold”. For the same binder, the pKd [19] was “below the threshold”, the pKd [20] was 3.56 and the pKd [21] was “below the threshold”. The pKd [22] was 3.74, the pKd [23] was 4.05 and the pKd [24] was “below the threshold”. The pKd [25] was “below the threshold” and the pKd [26] was “below the threshold”.
